Measurements from patent US20240279350A1 (Sanofi, published 2024).

Columns and labels:
human CD40 on cells [1] = target: T1, human CD40 on cells (human, UniProt P25942 21-277); test: cell-based or functional assay
human CD40 on cells [2] = target: T1, human CD40 on cells; test: cell-based or functional assay; remark: listed apart in the source
human CD40 on cells [3] = target: T1, human CD40 on cells; test: cell-based or functional assay; remark: listed apart in the source
human CD40 on cells [4] = target: T1, human CD40 on cells; test: cell-based or functional assay; remark: listed apart in the source
human CD40 on cells [5] = target: T1, human CD40 on cells; test: flow cytometry on Raji cells
Method: (§1) Briefly, Raji cells were seeded in 96-well plates at 1.0×10⁵ cells/well and incubated with serially-diluted test antibodies for 60 minutes at 4° C. in 2% FBS/dPBS buffer. The cells were then washed twice with dPBS and further incubated with secondary allophycocyanin (APC)-conjugated AffiniPure F(ab′)₂ fragment donkey anti-human IgG (H+L) antibody (Jackson ImmunoResearch, Ref. 709-136-149) (1:500) for 30 minutes at 4° C. Finally, the cells were washed twice with dPBS and suspended in FACS buffer for flow cytometry analysis. MFI values vs concentrations were analyzed by FlowJo and data were further fitted with four-parameter non-linear regression to get EC₅₀ values by GraphPad Prism software.

human CD40 on cells [6] = target: T1, human CD40 on cells; test: flow cytometry on U-2 OS/NFκB cells
Method: as §1, with “cultured U-2 OS/NFκB” for “Raji”

human CD40 on cells [7] = target: T1, human CD40 on cells; test: flow cytometry on Raji cells; EC50 relative to mAb1
Method: as §1

human CD40 on cells [8] = target: T1, human CD40 on cells; test: flow cytometry on U-2 OS/NFκB cells; EC50 relative to mAb1
Method: as §1, with “cultured U-2 OS/NFκB” for “Raji”

T1 sequence (P25942 21-277 limits assumed): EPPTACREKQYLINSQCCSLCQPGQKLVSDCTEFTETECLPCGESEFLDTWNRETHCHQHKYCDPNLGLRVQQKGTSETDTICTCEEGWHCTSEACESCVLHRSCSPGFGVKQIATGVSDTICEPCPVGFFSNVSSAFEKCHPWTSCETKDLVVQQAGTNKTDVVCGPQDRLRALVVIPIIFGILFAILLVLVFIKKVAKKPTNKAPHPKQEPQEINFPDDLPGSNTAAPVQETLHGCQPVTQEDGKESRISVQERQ

Binder	EC50, luciferase reporter assay in U-2 OS/NFκB cells (human CD40 on cells [1]) [nM]	Relative masking efficacy, luciferase reporter assay in U-2 OS/NFκB cells (human CD40 on cells [1]) [fold]	EC50, CD86 expression, primary human B-cell activation assay (human CD40 on cells [2]) [nM]	Relative masking efficacy, CD86 expression, primary human B-cell activation assay (human CD40 on cells [2]) [fold]	EC50, CD83 expression, B-cells of hCD40 KI mice (human CD40 on cells [3]) [nM]	EC50, CD86 expression, B-cells of hCD40 KI mice (human CD40 on cells [3]) [nM]	Relative masking efficacy, CD83 expression, B-cells of hCD40 KI mice (human CD40 on cells [3]) [fold]	Relative masking efficacy, CD86 expression, B-cells of hCD40 KI mice (human CD40 on cells [3]) [fold]	EC50, CD83 expression, MoDC maturation assay (human CD40 on cells [4]) [nM]	EC50, IL-8 release, MoDC maturation assay (human CD40 on cells [4]) [nM]	EC50 (human CD40 on cells [5]) [nM]	EC50 (human CD40 on cells [6]) [nM]	Relative masking efficacy (human CD40 on cells [7]) [fold]	Relative masking efficacy (human CD40 on cells [8]) [fold]
MC1 (masked mAb1 comprising MM1 and CL1) (antibody, human IgG2, kappa, Conditionally-active (masked) antibody) heavy: QVQLVQSGAEVKKPGASVKVSCKASGYTFTGKYMHWVRQAPGQGLEWMGWINPDSGGTNYAQKFQGRVTMTRDTSIATAYMELNRLRSDDTAVYYCARDQPLGYCTNGVCSYFDYWGQGTLVTVSSASTKGPSVFPLAPCSRSTSESTAALGCLVKDYFPEPVTVSWNSGALTSGVHTFPAVLQSSGLYSLSSVVTVPSSNFGTQTYTCNVDHKPSNTKVDKTVERKCCVECPPCPAPPVAGPSVFLFPPKPKDTLMISRTPEVTCVVVDVSHEDPEVQFNWYVDGVEVHNAKTKPREEQFNSTFRVVSVLTVVHQDWLNGKEYKCKVSNKGLPAPIEKTISKTKGQPREPQVYTLPPSREEMTKNQVSLTCLVKGFYPSDIAVEWESNGQPENNYKTTPPMLDSDGSFFLYSKLTVDKSRWQQGNVFSCSVMHEALHNHYTQKSLSLSPGK light: EDEPGIRCYYNDDTCQYGGGPLGLAGSGGSDIQMTQSPSSVSASVGDRVTITCRASQGIYSWLAWYQQKPGKAPNLLIYTASTLQSGVPSRFSGSGSGTDFTLTISSLQPEDFATYYCQQANIFPLTFGGGTKVEIKRTVAAPSVFIFPPSDEQLKSGTASVVCLLNNFYPREAKVQWKVDNALQSGNSQESVTEQDSKDSTYSLSSTLTLSKADYEKHKVYACEVTHQGLSSPVTKSFNRGEC	179	753	40.3	231	6.7	3.57	131	115	56.5	19.5	476	330	355	220
MC3 (masked mAb1 comprising MM1 and CL2) (antibody, human IgG2, kappa, Conditionally-active (masked) antibody) heavy: QVQLVQSGAEVKKPGASVKVSCKASGYTFTGKYMHWVRQAPGQGLEWMGWINPDSGGTNYAQKFQGRVTMTRDTSIATAYMELNRLRSDDTAVYYCARDQPLGYCTNGVCSYFDYWGQGTLVTVSSASTKGPSVFPLAPCSRSTSESTAALGCLVKDYFPEPVTVSWNSGALTSGVHTFPAVLQSSGLYSLSSVVTVPSSNFGTQTYTCNVDHKPSNTKVDKTVERKCCVECPPCPAPPVAGPSVFLFPPKPKDTLMISRTPEVTCVVVDVSHEDPEVQFNWYVDGVEVHNAKTKPREEQFNSTFRVVSVLTVVHQDWLNGKEYKCKVSNKGLPAPIEKTISKTKGQPREPQVYTLPPSREEMTKNQVSLTCLVKGFYPSDIAVEWESNGQPENNYKTTPPMLDSDGSFFLYSKLTVDKSRWQQGNVFSCSVMHEALHNHYTQKSLSLSPGK light: EDEPGIRCYYNDDTCQYSGRSAGGGGPLGLAGSGGSDIQMTQSPSSVSASVGDRVTITCRASQGIYSWLAWYQQKPGKAPNLLIYTASTLQSGVPSRFSGSGSGTDFTLTISSLQPEDFATYYCQQANIFPLTFGGGTKVEIKRTVAAPSVFIFPPSDEQLKSGTASVVCLLNNFYPREAKVQWKVDNALQSGNSQESVTEQDSKDSTYSLSSTLTLSKADYEKHKVYACEVTHQGLSSPVTKSFNRGEC	108	457	27.9	158	2.84	2.01	55.7	64.9	27.4	13.3	388	197	289	131
uPA-activated (MC3/MC4) (antibody, not shown: small tags and cut ends, Masked compound with CL2 (MC3 or MC4, printed 'MC3/MC4') after cleavage of the masking moiety by recombinant human uPA) heavy: QVQLVQSGAEVKKPGASVKVSCKASGYTFTGKYMHWVRQAPGQGLEWMGWINPDSGGTNYAQKFQGRVTMTRDTSIATAYMELNRLRSDDTAVYYCARDQPLGYCTNGVCSYFDYWGQGTLVTVSSASTKGPSVFPLAPCSRSTSESTAALGCLVKDYFPEPVTVSWNSGALTSGVHTFPAVLQSSGLYSLSSVVTVPSSNFGTQTYTCNVDHKPSNTKVDKTVERKCCVECPPCPAPPVAGPSVFLFPPKPKDTLMISRTPEVTCVVVDVSHEDPEVQFNWYVDGVEVHNAKTKPREEQFNSTFRVVSVLTVVHQDWLNGKEYKCKVSNKGLPAPIEKTISKTKGQPREPQVYTLPPSREEMTKNQVSLTCLVKGFYPSDIAVEWESNGQPENNYKTTPPMLDSDGSFFLYSKLTVDKSRWQQGNVFSCSVMHEALHNHYTQKSLSLSPGK light: DIQMTQSPSSVSASVGDRVTITCRASQGIYSWLAWYQQKPGKAPNLLIYTASTLQSGVPSRFSGSGSGTDFTLTISSLQPEDFATYYCQQANIFPLTFGGGTKVEIKRTVAAPSVFIFPPSDEQLKSGTASVVCLLNNFYPREAKVQWKVDNALQSGNSQESVTEQDSKDSTYSLSSTLTLSKADYEKHKVYACEVTHQGLSSPVTKSFNRGEC	0.362	1.5	0.134	0.77							2.01	2.52	1.5	1.7

The remaining lines, values ahead:

EC50, luciferase reporter assay in U-2 OS/NFκB cells (human CD40 on cells [1]) [nM]	Relative masking efficacy, luciferase reporter assay in U-2 OS/NFκB cells (human CD40 on cells [1]) [fold]	EC50, CD86 expression, primary human B-cell activation assay (human CD40 on cells [2]) [nM]	Relative masking efficacy, CD86 expression, primary human B-cell activation assay (human CD40 on cells [2]) [fold]	EC50, CD83 expression, B-cells of hCD40 KI mice (human CD40 on cells [3]) [nM]	EC50, CD86 expression, B-cells of hCD40 KI mice (human CD40 on cells [3]) [nM]	Relative masking efficacy, CD83 expression, B-cells of hCD40 KI mice (human CD40 on cells [3]) [fold]	Relative masking efficacy, CD86 expression, B-cells of hCD40 KI mice (human CD40 on cells [3]) [fold]	EC50, CD83 expression, MoDC maturation assay (human CD40 on cells [4]) [nM]	EC50, IL-8 release, MoDC maturation assay (human CD40 on cells [4]) [nM]	EC50 (human CD40 on cells [5]) [nM]	EC50 (human CD40 on cells [6]) [nM]	Relative masking efficacy (human CD40 on cells [7]) [fold]	Relative masking efficacy (human CD40 on cells [8]) [fold]	Binder
113	477	28.5	176	2.31	1.46	45.2	47.2	33.1	15.1	488	317	364	211	MC2 (masked mAb1 comprising MM2 and CL1) (antibody, human IgG2, kappa, Conditionally-active (masked) antibody) heavy: QVQLVQSGAEVKKPGASVKVSCKASGYTFTGKYMHWVRQAPGQGLEWMGWINPDSGGTNYAQKFQGRVTMTRDTSIATAYMELNRLRSDDTAVYYCARDQPLGYCTNGVCSYFDYWGQGTLVTVSSASTKGPSVFPLAPCSRSTSESTAALGCLVKDYFPEPVTVSWNSGALTSGVHTFPAVLQSSGLYSLSSVVTVPSSNFGTQTYTCNVDHKPSNTKVDKTVERKCCVECPPCPAPPVAGPSVFLFPPKPKDTLMISRTPEVTCVVVDVSHEDPEVQFNWYVDGVEVHNAKTKPREEQFNSTFRVVSVLTVVHQDWLNGKEYKCKVSNKGLPAPIEKTISKTKGQPREPQVYTLPPSREEMTKNQVSLTCLVKGFYPSDIAVEWESNGQPENNYKTTPPMLDSDGSFFLYSKLTVDKSRWQQGNVFSCSVMHEALHNHYTQKSLSLSPGK light: EVGSYYVCPVRFQYFCEEGGGPLGLAGSGGSDIQMTQSPSSVSASVGDRVTITCRASQGIYSWLAWYQQKPGKAPNLLIYTASTLQSGVPSRFSGSGSGTDFTLTISSLQPEDFATYYCQQANIFPLTFGGGTKVEIKRTVAAPSVFIFPPSDEQLKSGTASVVCLLNNFYPREAKVQWKVDNALQSGNSQESVTEQDSKDSTYSLSSTLTLSKADYEKHKVYACEVTHQGLSSPVTKSFNRGEC
0.261	1.1	0.114	0.65							1.46	1.94	1.1	1.3	MMP9-activated (MC1/MC2) (antibody, not shown: small tags and cut ends) heavy: QVQLVQSGAEVKKPGASVKVSCKASGYTFTGKYMHWVRQAPGQGLEWMGWINPDSGGTNYAQKFQGRVTMTRDTSIATAYMELNRLRSDDTAVYYCARDQPLGYCTNGVCSYFDYWGQGTLVTVSSASTKGPSVFPLAPCSRSTSESTAALGCLVKDYFPEPVTVSWNSGALTSGVHTFPAVLQSSGLYSLSSVVTVPSSNFGTQTYTCNVDHKPSNTKVDKTVERKCCVECPPCPAPPVAGPSVFLFPPKPKDTLMISRTPEVTCVVVDVSHEDPEVQFNWYVDGVEVHNAKTKPREEQFNSTFRVVSVLTVVHQDWLNGKEYKCKVSNKGLPAPIEKTISKTKGQPREPQVYTLPPSREEMTKNQVSLTCLVKGFYPSDIAVEWESNGQPENNYKTTPPMLDSDGSFFLYSKLTVDKSRWQQGNVFSCSVMHEALHNHYTQKSLSLSPGK light: DIQMTQSPSSVSASVGDRVTITCRASQGIYSWLAWYQQKPGKAPNLLIYTASTLQSGVPSRFSGSGSGTDFTLTISSLQPEDFATYYCQQANIFPLTFGGGTKVEIKRTVAAPSVFIFPPSDEQLKSGTASVVCLLNNFYPREAKVQWKVDNALQSGNSQESVTEQDSKDSTYSLSSTLTLSKADYEKHKVYACEVTHQGLSSPVTKSFNRGEC
